T1: CYCLINL1 (cyclin L1) (UniProt Q9UK58 1-526)
T1 sequence: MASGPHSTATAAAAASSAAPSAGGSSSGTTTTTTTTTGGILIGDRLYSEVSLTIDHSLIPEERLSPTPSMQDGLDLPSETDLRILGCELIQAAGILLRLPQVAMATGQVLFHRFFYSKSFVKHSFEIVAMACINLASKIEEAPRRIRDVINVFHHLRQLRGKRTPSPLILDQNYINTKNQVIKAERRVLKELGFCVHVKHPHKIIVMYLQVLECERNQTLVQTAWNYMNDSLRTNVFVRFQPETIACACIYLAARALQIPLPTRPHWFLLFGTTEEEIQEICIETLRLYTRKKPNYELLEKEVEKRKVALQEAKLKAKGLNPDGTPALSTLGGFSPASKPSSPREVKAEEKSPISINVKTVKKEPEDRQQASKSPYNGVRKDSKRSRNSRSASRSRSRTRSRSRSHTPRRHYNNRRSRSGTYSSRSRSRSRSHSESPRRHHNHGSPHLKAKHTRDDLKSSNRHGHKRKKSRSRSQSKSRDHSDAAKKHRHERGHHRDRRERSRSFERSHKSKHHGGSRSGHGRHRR


Legend:
CDK19 = CDK19 (UniProt Q9BWU1 1-502); experiment: EMSA; 10 mM Mg2+, tRNA, RNase T1; EMSA: 10 mM Tris-Cl pH 7.5, 25 mM KCl, 10 mM MgCl2, 1 mM DTT, 100 ng/ml tRNA, 25 C 30 min, then RNase T1 37 C 15 min. Pull-down: lysate in 50 mM Tris-HCl pH 7.5, 150 mM NaCl, 1% NP-40, 0.1% SDS, 4 C 12 h; wash 50 mM Tris pH 7.4, 150 mM NaCl, 0.05% NP-40, 1 mM MgCl2; conditions: protein: ivt; tags: Flag; label: 3' biotin
CYCLINL1 (cyclin L1) = molecular target: T1, CYCLINL1 (cyclin L1); experiment: as above; conditions: protein: ivt; tags: Myc; label: 3' biotin

CDK19, sequence (Q9BWU1 whole entry): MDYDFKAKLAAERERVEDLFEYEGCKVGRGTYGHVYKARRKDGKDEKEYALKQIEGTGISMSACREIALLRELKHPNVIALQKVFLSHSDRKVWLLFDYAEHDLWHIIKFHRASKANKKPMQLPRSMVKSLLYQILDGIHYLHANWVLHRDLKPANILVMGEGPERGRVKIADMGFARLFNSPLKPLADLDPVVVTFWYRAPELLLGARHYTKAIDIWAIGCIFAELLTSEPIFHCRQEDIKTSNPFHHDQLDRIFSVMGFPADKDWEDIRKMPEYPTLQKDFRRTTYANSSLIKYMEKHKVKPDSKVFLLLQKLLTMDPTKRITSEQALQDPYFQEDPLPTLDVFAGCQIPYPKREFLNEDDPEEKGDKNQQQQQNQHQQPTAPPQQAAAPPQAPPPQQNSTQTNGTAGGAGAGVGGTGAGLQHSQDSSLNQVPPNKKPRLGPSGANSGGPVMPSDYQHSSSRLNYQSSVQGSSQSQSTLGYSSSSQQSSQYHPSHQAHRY

Binder	binding result (CDK19)	binding result (CYCLINL1 (cyclin L1))
GCAGCCCCUUUUUUUCCAGACCAAGGGCUGUGA (ssRNA) [Probe WT in Fig3e (NEAT1-1 U-rich)]	binds	–
Probe m6A in Fig3e (NEAT1-1 site #4) (ssRNA, m6A at site #4 (A3494); stoichiometry and installation not stated) RNA: UUAUUUUUAUCGUUGGGAUCUUUCUGUCUUCUGGGUUCCAUUUUUUAAAUGUUUAAAAAUAUGUUGACAUGGUAGUUCAGUUCUUAACCAAUGACUUGGGGAUGA	–	binds

— paper PMC7733260, “Long non-coding RNA NEAT1 promotes bone metastasis of prostate cancer through N6-methyladenosine”
